Experimental findings from publication PMC2671584 are described below.

What all share (test): SPR; BIAcore 3000; ECM proteins immobilised on CM5 chips, endostatin injected at 0, 10, 50, 200 and 400 nM; 0.02 M Tris-HCl, 0.11 M NaCl, 0.05% P-20; 25 °C; flow 20 μl/min; global fit to the 1:1 Langmuir model; triplicates
In general terms: SPR reads the build-up and loss of mass on a sensor chip optically.

Assay [1] deals with recombinant microfibrillar component fibulin-1 (UniProt Q08879).
For a further assay, the target named is mouse perlecan (mouse) (UniProt Q05793).
Assay [2] addresses mouse laminin-1-nidogen-1 complex (mouse) (UniProt P19137).

Sequence of UniProt Q08879 (Q08879 30-705): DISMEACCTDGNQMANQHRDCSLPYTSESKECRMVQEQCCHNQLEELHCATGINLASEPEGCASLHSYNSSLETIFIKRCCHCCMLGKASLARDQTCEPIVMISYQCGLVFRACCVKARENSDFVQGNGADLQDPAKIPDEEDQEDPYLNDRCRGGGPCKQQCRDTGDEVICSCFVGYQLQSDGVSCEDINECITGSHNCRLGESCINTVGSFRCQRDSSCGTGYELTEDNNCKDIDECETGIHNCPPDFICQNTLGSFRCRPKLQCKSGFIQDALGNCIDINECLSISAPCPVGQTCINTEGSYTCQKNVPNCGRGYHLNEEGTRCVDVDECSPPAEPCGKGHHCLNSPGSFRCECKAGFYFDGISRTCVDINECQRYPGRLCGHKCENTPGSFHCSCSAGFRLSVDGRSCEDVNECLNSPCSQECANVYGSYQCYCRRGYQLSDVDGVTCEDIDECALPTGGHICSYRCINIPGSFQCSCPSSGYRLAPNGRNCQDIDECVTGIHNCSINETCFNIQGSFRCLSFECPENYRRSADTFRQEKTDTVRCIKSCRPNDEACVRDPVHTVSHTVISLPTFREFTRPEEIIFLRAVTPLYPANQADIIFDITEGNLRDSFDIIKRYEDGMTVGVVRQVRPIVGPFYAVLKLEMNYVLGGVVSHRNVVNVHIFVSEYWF
Sequence of UniProt Q05793 (Q05793 22-3707): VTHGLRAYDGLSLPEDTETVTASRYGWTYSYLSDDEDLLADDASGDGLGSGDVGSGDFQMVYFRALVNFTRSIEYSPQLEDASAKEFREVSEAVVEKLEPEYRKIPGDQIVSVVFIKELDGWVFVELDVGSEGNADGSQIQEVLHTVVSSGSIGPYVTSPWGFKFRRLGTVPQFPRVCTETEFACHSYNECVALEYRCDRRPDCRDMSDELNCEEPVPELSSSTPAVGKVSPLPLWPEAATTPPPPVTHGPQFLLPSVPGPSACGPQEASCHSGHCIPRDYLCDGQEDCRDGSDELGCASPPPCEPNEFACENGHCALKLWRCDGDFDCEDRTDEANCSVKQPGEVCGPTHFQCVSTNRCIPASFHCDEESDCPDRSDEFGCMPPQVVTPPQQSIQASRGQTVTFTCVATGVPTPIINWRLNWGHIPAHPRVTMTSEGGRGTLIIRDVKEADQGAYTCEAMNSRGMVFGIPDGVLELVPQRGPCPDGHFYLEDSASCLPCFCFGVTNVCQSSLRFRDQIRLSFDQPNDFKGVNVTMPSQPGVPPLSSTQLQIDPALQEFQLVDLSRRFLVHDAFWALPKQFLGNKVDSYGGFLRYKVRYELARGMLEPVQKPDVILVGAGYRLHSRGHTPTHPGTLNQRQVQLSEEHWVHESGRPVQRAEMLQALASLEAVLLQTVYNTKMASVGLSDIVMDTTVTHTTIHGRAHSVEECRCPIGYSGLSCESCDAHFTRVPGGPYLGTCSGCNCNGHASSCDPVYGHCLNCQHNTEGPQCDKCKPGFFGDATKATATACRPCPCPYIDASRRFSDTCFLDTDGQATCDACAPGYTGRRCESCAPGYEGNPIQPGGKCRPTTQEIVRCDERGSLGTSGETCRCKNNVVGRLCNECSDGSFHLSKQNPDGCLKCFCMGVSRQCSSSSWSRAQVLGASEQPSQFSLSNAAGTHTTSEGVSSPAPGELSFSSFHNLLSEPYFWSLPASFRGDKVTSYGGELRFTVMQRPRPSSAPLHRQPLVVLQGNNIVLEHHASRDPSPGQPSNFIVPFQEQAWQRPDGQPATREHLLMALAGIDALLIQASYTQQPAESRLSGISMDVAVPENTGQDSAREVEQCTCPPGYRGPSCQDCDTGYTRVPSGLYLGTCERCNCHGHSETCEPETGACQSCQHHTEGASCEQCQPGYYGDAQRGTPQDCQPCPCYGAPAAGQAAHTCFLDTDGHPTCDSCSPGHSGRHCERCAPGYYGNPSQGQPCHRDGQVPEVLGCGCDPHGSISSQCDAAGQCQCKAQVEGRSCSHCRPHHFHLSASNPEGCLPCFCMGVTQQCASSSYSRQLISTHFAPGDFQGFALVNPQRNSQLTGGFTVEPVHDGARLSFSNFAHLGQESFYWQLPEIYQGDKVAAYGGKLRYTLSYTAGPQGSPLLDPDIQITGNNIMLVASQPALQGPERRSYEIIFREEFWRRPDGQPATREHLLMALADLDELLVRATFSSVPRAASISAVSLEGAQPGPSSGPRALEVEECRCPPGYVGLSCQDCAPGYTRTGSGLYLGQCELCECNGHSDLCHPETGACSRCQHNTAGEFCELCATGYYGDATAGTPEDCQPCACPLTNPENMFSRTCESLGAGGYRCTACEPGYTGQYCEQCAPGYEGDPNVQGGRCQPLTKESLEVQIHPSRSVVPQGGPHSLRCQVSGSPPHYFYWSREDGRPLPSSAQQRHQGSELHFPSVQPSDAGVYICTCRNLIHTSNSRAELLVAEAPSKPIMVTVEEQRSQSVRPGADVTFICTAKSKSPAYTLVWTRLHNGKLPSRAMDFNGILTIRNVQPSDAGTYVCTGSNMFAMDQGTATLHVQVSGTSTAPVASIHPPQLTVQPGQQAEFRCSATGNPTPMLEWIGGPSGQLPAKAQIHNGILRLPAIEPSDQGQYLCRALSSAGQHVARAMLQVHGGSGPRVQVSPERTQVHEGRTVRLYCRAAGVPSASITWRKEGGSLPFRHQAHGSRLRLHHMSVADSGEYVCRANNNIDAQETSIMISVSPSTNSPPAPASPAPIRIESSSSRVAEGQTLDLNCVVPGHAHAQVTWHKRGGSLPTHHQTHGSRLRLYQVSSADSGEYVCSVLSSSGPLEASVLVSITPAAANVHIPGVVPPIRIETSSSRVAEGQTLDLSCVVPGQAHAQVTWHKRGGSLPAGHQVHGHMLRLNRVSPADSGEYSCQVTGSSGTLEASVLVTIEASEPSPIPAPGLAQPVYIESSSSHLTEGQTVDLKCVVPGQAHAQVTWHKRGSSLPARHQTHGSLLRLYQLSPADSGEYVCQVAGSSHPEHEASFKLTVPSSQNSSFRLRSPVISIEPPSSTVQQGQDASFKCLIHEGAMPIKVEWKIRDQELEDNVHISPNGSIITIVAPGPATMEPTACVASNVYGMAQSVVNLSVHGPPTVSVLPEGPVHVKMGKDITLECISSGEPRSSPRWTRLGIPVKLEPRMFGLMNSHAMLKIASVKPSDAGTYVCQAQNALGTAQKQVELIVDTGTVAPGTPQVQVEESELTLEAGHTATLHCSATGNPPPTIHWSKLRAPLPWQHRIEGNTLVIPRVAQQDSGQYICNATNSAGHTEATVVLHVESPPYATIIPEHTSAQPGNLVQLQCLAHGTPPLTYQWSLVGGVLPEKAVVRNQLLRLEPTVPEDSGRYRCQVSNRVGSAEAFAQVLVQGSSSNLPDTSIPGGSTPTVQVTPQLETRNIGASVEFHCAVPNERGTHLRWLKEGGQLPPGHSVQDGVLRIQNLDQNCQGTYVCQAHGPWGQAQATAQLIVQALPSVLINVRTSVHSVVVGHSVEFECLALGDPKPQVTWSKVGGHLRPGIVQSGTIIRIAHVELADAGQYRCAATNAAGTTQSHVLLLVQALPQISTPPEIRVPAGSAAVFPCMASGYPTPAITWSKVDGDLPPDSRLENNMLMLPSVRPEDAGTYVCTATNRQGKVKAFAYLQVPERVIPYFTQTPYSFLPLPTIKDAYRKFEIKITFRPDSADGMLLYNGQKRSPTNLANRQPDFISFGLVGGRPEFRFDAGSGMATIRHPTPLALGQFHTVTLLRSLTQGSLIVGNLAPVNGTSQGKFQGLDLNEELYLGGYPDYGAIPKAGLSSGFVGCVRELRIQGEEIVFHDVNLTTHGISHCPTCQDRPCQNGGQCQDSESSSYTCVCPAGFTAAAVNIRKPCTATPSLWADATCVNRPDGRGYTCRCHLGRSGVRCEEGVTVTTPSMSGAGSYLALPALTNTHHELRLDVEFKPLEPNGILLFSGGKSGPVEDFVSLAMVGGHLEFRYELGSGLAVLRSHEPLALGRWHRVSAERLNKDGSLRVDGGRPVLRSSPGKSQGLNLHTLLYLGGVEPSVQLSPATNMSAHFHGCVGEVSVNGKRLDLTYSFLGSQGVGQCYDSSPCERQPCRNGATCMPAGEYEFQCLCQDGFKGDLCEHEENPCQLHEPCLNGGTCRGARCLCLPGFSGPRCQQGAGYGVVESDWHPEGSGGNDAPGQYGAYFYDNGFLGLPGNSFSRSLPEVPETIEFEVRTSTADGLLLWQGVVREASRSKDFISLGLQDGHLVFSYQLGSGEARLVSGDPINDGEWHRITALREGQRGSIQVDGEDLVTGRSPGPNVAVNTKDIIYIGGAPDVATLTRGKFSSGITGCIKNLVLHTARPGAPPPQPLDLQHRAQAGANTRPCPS

As to “p.A1381T endostatin (mutated endostatin domain, c.3601G>A) (domain or fragment)”, the Kd was 6.95 nM in assay [1], 5.19 nM in the assay with mouse perlecan (mouse) and 6.17 nM in assay [2].
On the same counts, the results for “wild type human endostatin (endostatin domain of type XVIII collagen) (domain or fragment)” are 3.1 nM, 5.53 nM and 3.48 nM.

Usually Kd stands for the concentration at which binding is half-saturated.
